Source: paper PMC2148169 (The Journal of Cell Biology, 1998)

Target: the molecule itself
Experiment: SEC

B1: recombinant GST-Vps5p expressed in bacteria (natural protein)
chain: LEAPVWDELNHEGDKTQSLVSNSIESIGQISTNEERKDNELLETTASFADKIDLDSAPEWKDPGLSVAGNPQLEEHDNSKADDLINSLAPEQDPIADLKNSTTQFIATRESGGALFTGNANSPLVFDDTIYDANTSPNTSKSISGRRSGKPRILFDSARAQRNSKRNHSLKAKRTTASDDTIKTPFTDPLKKAEKENEFVEEPLDDRNERRENNEGKFTASVEKNILEQVDRPLYNLPQTGANISSPAEVEENSEKFGKTKIGSKVPPTEKAVAFKVEVKDPVKVGELTSIHVEYTVISESSLLELKYAQVSRRYRDFRWLYRQLQNNHWGKVIPPPPEKQSVGSFKENFIENRRFQMESMLKKICQDPVLQKDKDFLLFLTSDDFSSESKKRAFLTGSGAINDSNDLSEVRISEIQLLGAEDAAEVLKNGGIDAESHKGFMSISFSSLPKYNEADEFFIEKKQKIDELEDNLKKLSKSLEMVDTSRNTLAASTEEFSSMVETLASLNVSEPNSELLNNFADVHKSIKSSLERSSLQETLTMGVMLDDYIRSLASVKAIFNQRSKLGYFLVVIENDMNKKHSQLGKLGQNIHSEKFREMRKEFQTLERRYNLTKKQWQAVGDKIKDEFQGFSTDKIREFRNGMEISLEAAIESQKECIELWETFYQTNL
binding result: binds
